Experimental data published in US20210388087A1 (Chugai, published 2021).
Positions count from the first letter of the chain named. Names may count otherwise.

B1: CE115HA000 A99T one-arm antibody (antibody, human IgG1, kappa, L234A L235A, N297A, name in Kabat numbering)
heavy: QVQLVESGGGVVQPGRSLRLSCAASGFTFSNAWMHWVRQAPGKGLEWVAQIKAKSNNYATYYAESVKGRFTISRDDSKNSLYLQMNSLKTEDTAVYYCRYVHYGTYYGVDAWGQGTTVTVSSASTKGPSVFPLAPSSKSTSGGTAALGCLVKDYFPEPVTVSWNSGALTSGVHTFPAVLQSSGLYSLSSVVTVPSSSLGTQTYICNVNHKPSNTKVDKKVEPKSCDKTHTCPPCPAPEAAGGPSVFLFPPKPKDTLMISRTPEVTCVVVDVSHEDPEVKFNWYVDGVEVHNAKTKPREEQYASTYRVVSVLTVLHQDWLNGKEYKCKVSNKALPAPIEKTISKAKGQPREPQVYTLPPSRCELTKNQVSLSCAVKGFYPSDIAVEWESNGQPENNYKTTPPVLDSDGSFFLVSKLTVDKSRWQQGNVFSCSVMHEALHNHYTQKSLSLSPDYKDDDDK
chain: EPKSSDKTHTCPPCPAPELLGGPSVFLFPPKPKDTLMISRTPEVTCVVVDVSHEDPEVKFNWYVDGVEVHNAKTKPREEQYNSTYRVVSVLTVLHQDWLNGKEYKCKVSNKALPAPIEKTISKAKGQPREPQVCTLPPSRDELTKNQVSLWCLVKGFYPSDIAVEWESNGQPENNYKTTPPVLDSDGSFFLYSKLTVDKSRWQQGNVFSCSVMHEALHNRYTQKSLSLSP
light: DIVMTQSPLSLPVTPGEPASISCRSSQSLVHSNRNTYLHWYQQKPGQAPRLLIYKVSNRFSGVPDRFSGSGSGTDFTLKISRVEAEDVGVYYCGQGTQVPYTFGQGTKLEIKRTVAAPSVFIFPPSDEQLKSGTASVVCLLNNFYPREAKVQWKVDNALQSGNSQESVTEQDSKDSTYSLSSTLTLSKADYEKHKVYACEVTHQGLSSPVTKSFNRGEC
B2: CE115HA000 D101F one-arm antibody (antibody, human IgG1, kappa, L234A L235A, N297A, name in Kabat numbering)
heavy: B1 heavy with T105A, D110F
chain: B1 chain
light: B1 light
B3: CE115HA000 D73A one-arm antibody (antibody, human IgG1, kappa, L234A L235A, N297A, name in Kabat numbering)
heavy: B1 heavy with D76A, T105A
chain: B1 chain
light: B1 light
B4: CE115HA000 A99Y one-arm antibody (antibody, human IgG1, kappa, L234A L235A, N297A, name in Kabat numbering)
heavy: B1 heavy with T105Y
chain: B1 chain
light: B1 light
B5: CE115HA000 D73G one-arm antibody (antibody, human IgG1, kappa, L234A L235A, N297A, name in Kabat numbering)
heavy: B1 heavy with D76G, T105A
chain: B1 chain
light: B1 light
B6: CE115HA000 A102I one-arm antibody (antibody, human IgG1, kappa, L234A L235A, N297A, name in Kabat numbering)
heavy: B1 heavy with T105A, A111I
chain: B1 chain
light: B1 light
B7: CE115HA000 D101N one-arm antibody (antibody, human IgG1, kappa, L234A L235A, N297A, name in Kabat numbering)
heavy: B1 heavy with T105A, D110N
chain: B1 chain
light: B1 light
B8: CE115HA000 D101Q one-arm antibody (antibody, human IgG1, kappa, L234A L235A, N297A, name in Kabat numbering)
heavy: B1 heavy with T105A, D110Q
chain: B1 chain
light: B1 light
B9: CE115HA000 D73R one-arm antibody (antibody, human IgG1, kappa, L234A L235A, N297A, name in Kabat numbering)
heavy: B1 heavy with D76R, T105A
chain: B1 chain
light: B1 light
B10: CE115HA000 D101I one-arm antibody (antibody, human IgG1, kappa, L234A L235A, N297A, name in Kabat numbering)
heavy: B1 heavy with T105A, D110I
chain: B1 chain
light: B1 light
B11: CE115HA000 D101A one-arm antibody (antibody, human IgG1, kappa, L234A L235A, N297A, name in Kabat numbering)
heavy: B1 heavy with T105A, D110A
chain: B1 chain
light: B1 light
B12: CE115HA000 D73E one-arm antibody (antibody, human IgG1, kappa, L234A L235A, N297A, name in Kabat numbering)
heavy: B1 heavy with D76E, T105A
chain: B1 chain
light: B1 light
B13: CE115HA000 D101G one-arm antibody (antibody, human IgG1, kappa, L234A L235A, N297A, name in Kabat numbering)
heavy: B1 heavy with T105A, D110G
chain: B1 chain
light: B1 light
B14: CE115HA000 D101H one-arm antibody (antibody, human IgG1, kappa, L234A L235A, N297A, name in Kabat numbering)
heavy: B1 heavy with T105A, D110H
chain: B1 chain
light: B1 light
B15: CE115HA000 D73T one-arm antibody (antibody, human IgG1, kappa, L234A L235A, N297A, name in Kabat numbering)
heavy: B1 heavy with D76T, T105A
chain: B1 chain
light: B1 light
B16: CE115HA000 D101P one-arm antibody (antibody, human IgG1, kappa, L234A L235A, N297A, name in Kabat numbering)
heavy: B1 heavy with T105A, D110P
chain: B1 chain
light: B1 light
B17: CE115HA000 D72V one-arm antibody (antibody, human IgG1, kappa, L234A L235A, N297A, name in Kabat numbering)
heavy: B1 heavy with D75V, T105A
chain: B1 chain
light: B1 light
B18: CE115HA000 D101T one-arm antibody (antibody, human IgG1, kappa, L234A L235A, N297A, name in Kabat numbering)
heavy: B1 heavy with T105A, D110T
chain: B1 chain
light: B1 light
B19: CE115HA000 A102Y one-arm antibody (antibody, human IgG1, kappa, L234A L235A, N297A, name in Kabat numbering)
heavy: B1 heavy with T105A, A111Y
chain: B1 chain
light: B1 light
B20: CE115HA000 D73N one-arm antibody (antibody, human IgG1, kappa, L234A L235A, N297A, name in Kabat numbering)
heavy: B1 heavy with D76N, T105A
chain: B1 chain
light: B1 light
B21: CE115HA000 A102P one-arm antibody (antibody, human IgG1, kappa, L234A L235A, N297A, name in Kabat numbering)
heavy: B1 heavy with T105A, A111P
chain: B1 chain
light: B1 light
B22: CE115HA000 D101K one-arm antibody (antibody, human IgG1, kappa, L234A L235A, N297A, name in Kabat numbering)
heavy: B1 heavy with T105A, D110K
chain: B1 chain
light: B1 light
B23: CE115HA000 D101L one-arm antibody (antibody, human IgG1, kappa, L234A L235A, N297A, name in Kabat numbering)
heavy: B1 heavy with T105A, D110L
chain: B1 chain
light: B1 light
B24: CE115HA000 D72A one-arm antibody (antibody, human IgG1, kappa, L234A L235A, N297A, name in Kabat numbering)
heavy: B1 heavy with D75A, T105A
chain: B1 chain
light: B1 light
B25: CE115HA000 D72E one-arm antibody (antibody, human IgG1, kappa, L234A L235A, N297A, name in Kabat numbering)
heavy: B1 heavy with D75E, T105A
chain: B1 chain
light: B1 light
B26: CE115HA000 D101S one-arm antibody (antibody, human IgG1, kappa, L234A L235A, N297A, name in Kabat numbering)
heavy: B1 heavy with T105A, D110S
chain: B1 chain
light: B1 light
B27: CE115HA000 D101R one-arm antibody (antibody, human IgG1, kappa, L234A L235A, N297A, name in Kabat numbering)
heavy: B1 heavy with T105A, D110R
chain: B1 chain
light: B1 light
B28: CE115HA000 D101V one-arm antibody (antibody, human IgG1, kappa, L234A L235A, N297A, name in Kabat numbering)
heavy: B1 heavy with T105A, D110V
chain: B1 chain
light: B1 light
B29: CE115HA000 D101M one-arm antibody (antibody, human IgG1, kappa, L234A L235A, N297A, name in Kabat numbering)
heavy: B1 heavy with T105A, D110M
chain: B1 chain
light: B1 light
B30: CE115HA000 D73K one-arm antibody (antibody, human IgG1, kappa, L234A L235A, N297A, name in Kabat numbering)
heavy: B1 heavy with D76K, T105A
chain: B1 chain
light: B1 light
B31: CE115HA000 A102V one-arm antibody (antibody, human IgG1, kappa, L234A L235A, N297A, name in Kabat numbering)
heavy: B1 heavy with T105A, A111V
chain: B1 chain
light: B1 light

These binders were tested against T1, CD3 epsilon homodimer protein (UniProt P07766 23-126) (assay: SPR (Biacore T200), CD3 epsilon homodimer on CM4 chip, one-arm antibody as analyte, 25 C;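 further: homodimer attached to the sensor surface via amine coupling, HBS-EP+ used as running buffer during binding runs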).
T1 construct: immobilized on Sensor chip CM4 by amine coupling; also called CD3 (CD3 epsilon)
T1 sequence (P07766 23-126): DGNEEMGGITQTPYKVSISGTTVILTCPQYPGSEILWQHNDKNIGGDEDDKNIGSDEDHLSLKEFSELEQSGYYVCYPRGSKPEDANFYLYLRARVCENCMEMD

Row | Binder | ratio of amounts bound (altered form / CE115HA000)
1 | B1 | 0.84
2 | B2 | 0.75
3 | B3 | 0.83
4 | B4 | 1.59
5 | B5 | 1.07
6 | B6 | 1.48
7 | B7 | 2.02
8 | B8 | 2.35
9 | B9 | 1.04
10 | B10 | 1.18
11 | B11 | 1.26
12 | B12 | 0.73
13 | B13 | 1.38
14 | B14 | 1.21
15 | B15 | 0.63
16 | B16 | 0.2

Row | Binder | ratio of amounts bound (altered form / CE115HA000)
17 | B17 | 1.43
18 | B18 | 0.79
19 | B19 | 0.91
20 | B20 | 0.94
21 | B21 | 0.14
22 | B22 | 0.63
23 | B23 | 0.62
24 | B24 | 1.41
25 | B25 | 1.05
26 | B26 | 1.16
27 | B27 | 0.24
28 | B28 | 1.33
29 | B29 | 1.2
30 | B30 | 0.87
31 | B31 | 1.43
